B1: OR4K15 (parent)
chain: GUUAACGGUCAUAGGCCAUGGAAACUAGGAGCACCAUUUCGCUGCCAGUGAAGAAAUGAACAAAGAAAAUCUGGGCCAGGCAGGCAUCAAAAGAAAUAGUCUUGCGCUCAACCAGAAAGUCUGUAAUCAUUUUAAGGGUA

Variants of: B1
Assay: self-cleavage, relative activity (ratio to wild type); higher = more cleavage; in vitro, sequencing; the parent is a self-cleaving ribozyme

First: GUCAACGGUCAUAGGCCAUGGAAACUAGGAGCACCAUUUCGCUGCCAGUGAAGAAAUGAACAAAGAAAAUCUGGGCCAGGCAGGCAUCAAAAGAAAUAGUCUUGCGCUCAACCAGAUAGUCUGUAAUCAUUUUAAGGGUA
Second: GUUAACGGUCAUAGGCCAUGGAAACUAGGAGCACCAUUUCGCUGCCAGGGAAGAAAUGAACAAAGAAAAUCUGGGCCAGGCAGGCAUCAAAAGAAAUAGUCUUGCGCUCAACCAGAAAGUCUGUAAUCAUUUUAAGGGUA
The self-cleavage of the first is lower: 1.02 for the first, 1.13 for the second.

First: GUUAACGGUCAUAGGCCAUGGAAACUAGGUGCACCAUUUCGCUGCCUGUGAAGAAAUGAACAAAGAAAAUCUGGGCCAGGCAGGCAUCAAAAGAAAUAGUCUUGCGCUCAACCAGAAAGUCUGUAAUCAUUUUAAGGGUA
Second: GUUAACGGUCAUUGGCCAUGGAAACUAGGAGCACCAUUUCGCUGCCAGUGAAGAAAUGAACAUAGAAAAUCUGGGCCAGGCAGGCAUCAAAAGAAAUAGUCUUGCGCUCAACCAGAAAGUCUGUAAUCAUUUUAAGGGUA
The self-cleavage of the first is lower: 0.19 for the first, 1.13 for the second.

First: GUUAACGGUCAUAGGCCAUGGAAACUAGGAGCACCAUUUCGCCGCCAGUGAAGAAAUGAACAAAGAAAAUCUGGGCCAGGCAGGCAUCAAAAGAAAUAGUCUUGCGCUCAACCAGAAAGUCUGUUAUCAUUUUAAGGGUA
Second: GUUAACGGUCAUAGGCCAUGGAGACUAGGAGCACCAUUUCGCUGCCAGUGAAGAAAUGAACAAAGAAAAUCUGGGCCAGGCAGGCAUCAAAAGGAAUAGUCUUGCGCUCAACCAGAAAGUCUGUAAUCAUUUUAAGGGUA
The self-cleavage of the first is higher: 1.56 for the first, 1.42 for the second.

Going from GGUAACGGUCAUAGGCCAUGGAAACUAGGAGCACCAUUUCGCUGCCAGUGAAGAAAUGAACAAAGAAAAUCUGGGCCAGGCAGGCAUCAAGAGAAAUAGUCUUGCGCUCAACCAGAAAGUCUGUAAUCAUUUUAAGGGUA to GUUAACGGUCAUAGGCCAUGGAAACUAGGAGCACCAUUUCGCUGCCAGUGAAGAAAUGAACUAAGAAAAUCUGGGCCAGGCAGGUAUCAAAAGAAAUAGUCUUGCGCUCAACCAGAAAGUCUGUAAUCAUUUUAAGGGUA, the self-cleavage rises from 1.16 to 1.31.

First: GUUAGCGGUCAUUGGCCAUGGAAACUAGGAGCACCAUUUCGCUGCCAGUGAAGAAAUGAACAAAGAAAAUCUGGGCCAGGCAGGCAUCAAAAGAAAUAGUCUUGCGCUCAACCAGAAAGUCUGUAAUCAUUUUAAGGGUA
Second: GUUAAUGGUCAUAGGCCAUGGAAACUAGGAGCACCAUUUCGCUGCCAGUGAAGAAAUGAACAAAGAAAAUCUGGGCCAGGCAGGCAUCAAAAGAAAUAGCCUUGCGCUCAACCAGAAAGUCUGUAAUCAUUUUAAGGGUA
The self-cleavage of the first is lower: 0.95 for the first, 1.18 for the second.

Going from GUUAACGGUCAUAGGCCAUGGAAACUAGGAGCACCAUUUCGCUGCCAGUGAAGAAAUGAACAAAGAAAAUCUGGGCCAGGCAGGCAUCAUAAGAAAUAGUCUUGCGCUCAACCAGAAAGUCCGUAAUCAUUUUAAGGGUA to GUUAACGGUCAUAGGCCAUGGGAACUAGGAGCACCAUUUCGCUGCCAGUGAAGAAAUGAACAAAGACAAUCUGGGCCAGGCAGGCAUCAAAAGAAAUAGUCUUGCGCUCAACCAGAAAGUCUGUAAUCAUUUUAAGGGUA, the self-cleavage falls from 2.2 to 1.6.

Compared with GUUAACGGUCAUAGGCCAUGGAAACUAGGAGCACCAUUUCGCUGCCAGUGAAGAAAUGAACAAAGAAGAUCUGGGCCAGGCAGGCAUCAAAAGAAAUAGUCUUGCGCUCAACCAGAAAGGCUGUAAUCAUUUUAAGGGUA, GUUAACGGUCAUAGGCCAUGGAAACUAGGAGCACCAUUUCGCUGCCAGUGAAGAAAUGAACUAAGAAAAUCUGGGCCAGGCAGGCAUCAAAAGAAAUAGUCUUGCGCUCGACCAGAAAGUCUGUAAUCAUUUUAAGGGUA is lower in self-cleavage: 1.02 for the first, 0.14 for the second.

Going from GUUAACGGUCAUAGGCCAUGGAAACUAGGGGCACCAUUUCGCUGCCAGUGAAGAAAUGAACAAAGAAAAUCUGGGCCAGGCAGGCAUCAAAAGAAAUAGUCUAGCGCUCAACCAGAAAGUCUGUAAUCAUUUUAAGGGUA to GUUAACGGUCAUAGGCCAUGGAAACUAGGAGCACCAUUUCGCUGCCAGUGGAGAAAUGAACAAAGAAAAUCUGGGCCAGGCAGGCAUCAAAAGAAAUGGUCUUGCGCUCAACCAGAAAGUCUGUAAUCAUUUUAAGGGUA, the self-cleavage rises from 0.17 to 0.29.

Going from GUUAACGGUCAUAGGCCAUGGAAACUAGGAGCACCAUUUCGCUGCCAGUGGAGAAAUGAACAAAGAAAAUCUGGGCCAGGCAGGCCUCAAAAGAAAUAGUCUUGCGCUCAACCAGAAAGUCUGUAAUCAUUUUAAGGGUA to GUUAAUGGUCAUAGGCCAGGGAAACUAGGAGCACCAUUUCGCUGCCAGUGAAGAAAUGAACAAAGAAAAUCUGGGCCAGGCAGGCAUCAAAAGAAAUAGUCUUGCGCUCAACCAGAAAGUCUGUAAUCAUUUUAAGGGUA, the self-cleavage rises from 0.65 to 0.77.

Compared with GUUAACGGUCAUAGGCCAUGGAAACUAGGAGCACCAUUUCGCUGCCAGUGAAGAUAUGAACAAAGAAAAUCUGGGCCAGGCAGGCAUCUAAAGAAAUAGUCUUGCGCUCAACCAGAAAGUCUGUAAUCAUUUUAAGGGUA, GUUAACGGUCAUAGGCCAUGGAAACUAGGAGCACCAUUUCGCUGCCAGUGAAGAAAUGAACAAAGAAAAUCAGGGCCAGGCAGGCGUCAAAAGAAAUAGUCUUGCGCUCAACCAGAAAGUCUGUAAUCAUUUUAAGGGUA is lower in self-cleavage: 0.56 for the first, 0.17 for the second.

Variant GUUAACGGUCAUAGGCAAUGGAAACUAGGAGCACCAUUUCGCAGCCAGUGAAGAAAUGAACAAAGAAAAUCUGGGCCAGGCAGGCAUCAAAAGAAAUAGUCUUGCGCUCAACCAGAAAGUCUGUAAUCAUUUUAAGGGUA has a self-cleavage of 1.18.
